Test [1] concerns the target high-affinity receptor for bFGF on bovine capillary endothelial (BCE) cells (bovine (endogenous in BCE cells)). Put plainly: radioligand binding.
The target is the same in test [2]. Put plainly: radioligand binding. This is another data set of the same source.

Where two headings read alike, the source gives them in different places.

Take “125I-labeled basic fibroblast growth factor (125I-bFGF) (from UniProt P09038 1-288) (ligand)”: the fmol bFGF bound to high affinity sites is 2.6 fmol in test [1] and 3.1 fmol in test [2].
